Measurements taken from PMC8557155 (Annals of Nuclear Medicine, 2021).

Key:
[1] = in vivo; cited from earlier work
[2] = in vivo; cited from earlier work; remark: listed apart in the source
Text: This study is the first clinical trial on ^177Lu-DOTATATE for unresectable NETs in Japan. At 29.6 GBq, the absorbed dose to the kidney and red bone marrow was 16.8 Gy and 0.722 Gy, respectively. These values were lower than the reported threshold dose for the kidney (23 Gy) and the red bone marrow (2 Gy). The calculated absorbed doses to the kidney, spleen, red bone marrow, and liver were 0.568, 0.559, 0.0244 and 0.247 mGy/MBq, respectively, in this study. We compared the calculated absorbed dose to each organ with previously published studies in Caucasian populations. In the prev ... || In this study, severe lymphopenia occurred in two (33.3%) cases, and other hematological toxicities were grade 1 or 2 leukocytopenia and thrombocytopenia. This finding was very similar to that reported in the Erasmus study. […] In the present study, lymphocyte, erythrocyte, and leukocyte counts gradua ...

clinical = test: clinical; design: species or system human (Japanese patients); details: in vivo; for dose excreted: human, iv, 7.4 GBq, total radioactivity

For C[C@@H](O)[C@H](NC(=O)[C@@H]1CSSC[C@H](NC(=O)[C@@H](Cc2ccccc2)NC(=O)CN2CCN(CC(=O)O)CCN(CC(=O)O)CCN(CC(=O)O)CC2)C(=O)N[C@@H](Cc2ccc(O)cc2)C(=O)N[C@H](Cc2c[nH]c3ccccc23)C(=O)N[C@@H](CCCCN)C(=O)N[C@@H]([C@@H](C)O)C(=O)N1)C(=O)O [177Lu-DOTATATE, ^177Lu-DOTA^0-Tyr^3-octreotate, metal not drawn], the Absorbed dose to the spleen [1] is given as 0.645 mGy/MBq, the “Severe lymphopenia at the follow-up visit after 3 month final treatment” value [2] is given as 25.8% and the “Severe lymphopenia at the follow-up visit after 30 months final treatment” value [2] is given as 5.6%. For the same molecule, the “Severe lymphopenia, frequency” value [2] was 50.0%, the “Severe renal toxicities, frequency” value [2] was 1% and the dose excreted (clinical; Biological cumulative urine excretion of radioactivity at 24 h after administration) was 71.2%. The dose excreted (clinical; Biological cumulative urine excretion of radioactivity in the first 4 h) was 53.7%, the dose excreted (clinical; Cumulative urinary excretion of radioactivity within the initial 6 h) was 60.1% and the “Effective urinary radioactivity concentration, 0–1 h” value (clinical) was 4.7 ± 1.9 GBq/L. The “Effective urinary radioactivity concentration, 4–6 h” value (clinical) was 1.3 ± 1.1 GBq/L, the “Effective urinary radioactivity concentration, 6–24 h” value (clinical) was 0.3 ± 0.1 GBq/L and the “Effective urinary radioactivity concentration, 24–48 h” value (clinical) was 0.07 ± 0.03 GBq/L.
